Data on 1 molecule can be found in patent publication US20260263647A1 (Dana-Farber, published 2026).

For assay [1], the target named is T1, human CD45 on human peripheral blood mononuclear cells (PBMCs) (human, UniProt P08575 26-1306).
T1 construct: whole, on cells; The target is inferred from the cells used (CD45+ human PBMCs); also called hCD45
T1 sequence (looked up): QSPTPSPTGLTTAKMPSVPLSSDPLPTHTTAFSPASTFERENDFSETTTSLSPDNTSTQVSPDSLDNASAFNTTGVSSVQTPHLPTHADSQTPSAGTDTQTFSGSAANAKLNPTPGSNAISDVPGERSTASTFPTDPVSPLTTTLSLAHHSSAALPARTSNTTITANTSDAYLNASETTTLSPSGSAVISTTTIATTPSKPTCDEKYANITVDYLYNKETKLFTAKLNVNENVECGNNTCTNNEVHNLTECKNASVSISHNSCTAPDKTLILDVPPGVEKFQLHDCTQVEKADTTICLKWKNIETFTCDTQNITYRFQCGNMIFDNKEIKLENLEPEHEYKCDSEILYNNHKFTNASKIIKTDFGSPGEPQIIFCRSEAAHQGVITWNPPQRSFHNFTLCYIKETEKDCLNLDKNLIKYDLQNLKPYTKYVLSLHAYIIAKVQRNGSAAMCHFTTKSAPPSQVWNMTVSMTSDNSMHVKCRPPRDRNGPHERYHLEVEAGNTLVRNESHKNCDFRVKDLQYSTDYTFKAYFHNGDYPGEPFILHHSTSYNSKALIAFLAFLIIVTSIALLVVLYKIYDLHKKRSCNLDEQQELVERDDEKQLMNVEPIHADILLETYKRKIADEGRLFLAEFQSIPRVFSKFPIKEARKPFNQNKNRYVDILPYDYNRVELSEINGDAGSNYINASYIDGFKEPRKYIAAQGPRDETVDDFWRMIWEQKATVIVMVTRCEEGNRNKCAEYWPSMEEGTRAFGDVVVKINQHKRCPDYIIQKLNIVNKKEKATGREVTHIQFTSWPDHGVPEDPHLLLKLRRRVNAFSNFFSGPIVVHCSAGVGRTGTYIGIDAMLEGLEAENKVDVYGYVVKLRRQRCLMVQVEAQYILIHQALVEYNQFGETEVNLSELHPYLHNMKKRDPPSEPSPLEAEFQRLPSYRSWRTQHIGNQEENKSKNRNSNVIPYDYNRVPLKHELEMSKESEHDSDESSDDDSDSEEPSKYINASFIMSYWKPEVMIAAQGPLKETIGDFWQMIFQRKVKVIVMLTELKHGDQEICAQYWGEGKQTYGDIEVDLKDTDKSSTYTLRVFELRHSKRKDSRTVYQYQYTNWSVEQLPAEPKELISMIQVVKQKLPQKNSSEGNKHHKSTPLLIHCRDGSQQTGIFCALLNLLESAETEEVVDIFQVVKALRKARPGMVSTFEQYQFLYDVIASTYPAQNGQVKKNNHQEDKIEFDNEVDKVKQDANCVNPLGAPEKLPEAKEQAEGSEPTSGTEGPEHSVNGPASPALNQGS
Kind of assay: flow cytometry, staining of human PBMCs with different concentrations of the minibody. For orientation: A flow cytometer gives signals particle by particle.

Assay [2] concerns the target T1, human CD45 on human peripheral blood …. Nature of the assay: flow cytometry on human PBMCs.

The term EC50 denotes the concentration that produces a half-maximal response. Low readings indicate greater potency, high ones weaker potency.

B1: CD45 minibody (anti-human CD45 antibody fragment, clone BC8 scFv fused to the IgG1 CH3 domain) (other)
chain: QVQLVESGGGLVQPGGSLKLSCAASGFDFSRYWMSWVRQAPGKGLEWIGEINPTSSTINFTPSLKDKVFISRDNAKNTLYLQMSKVRSEDTALYYCARGNYYRYGDAMDYWGQGTSVTVSKISGGGGSGGGGSGGGGSGGGGSGGGGSSDIVLTQSPASLAVSLGQRATISCRASKSVSTSGYSYLHWYQQKPGQPPKLLIYLASNLESGVPARFSGSGSGTDFTLNIHPVEEEDAATYYCQHSRELPFTFGSGTKLEIKGGGSEPKSPKSADKTHTAPQPREPQVYTLPPSRDELTKNQVSLTCLVKGFYPSDIAVEWESNGQPENNYKTTPPVLDSDGSFFLYSKLTVDKSRWQQGNVFSCSVMHEALHNHYTQKSLSLSPGKDYKDDDKHHHHHH
notes: also called anti-CD45-minibody probe; human CD45-PET probe
Regarding B1, the results for the EC50 in assay [1] and in assay [2] were ~10 nM and ~5 nM, respectively.
